Source: the supplement of paper PMC10567573

B1: FBXO33 (parent)
chain: RLRGLLRVLRGRPGAGSRRRGRMA
B2: HESX1 (parent)
chain: HVPNPPSGISFPSVVDHPMPEERA

Variants of: B1
Experiment: protein stability index of a GFP-peptide fusion (GPS, HEK-293T) (PSI 1-6); higher = more stable
Details: c terminus: a fixed tail appended
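Note: lentivirally expressed fusions sorted by FACS into six bins by GFP to DsRed ratio, PSI derived from sequencing read proportions per bin multiplied by bin number.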

Protein stability index, by site and new letter:
M23: V 1.97
A24: E 2.54; D 1.04; I 1.46; W 2.42; Y 2.27; F 2.73; L 1.64; P 3.3; Q 2.74; R 2.63

Variants of: B2
Experiment: as above
Details: c terminus: a fixed tail appended

Protein stability index of substitutions, site by site:
H1: W 4.33; M 5.08; R 4.62; D 5.46; S 5.2; E 5.06; C 4.48; N 5.29; Y 2.25; L 4.51; I 4.77; P 5.28; F 3.54; K 4.82; Q 5.07; A 5.22; G 5.41; V 5.32; T 5.62
G8: N 3.48; V 2.87; I 2.83; T 2.91; K 3.62; M 2.59; S 3.03; H 3.49; D 4.1; Q 3.18; Y 2.09; R 2.94; P 4.09; C 2.36; L 3.17; A 3.2; E 3.01; F 2.84; W 2.87
N4: M 3.04; Y 3.06; G 1.66; E 3.8; R 4.18; K 3.76; F 3.47; A 1.65; I 3.54; C 2.23; H 3.09; W 3.44; S 2.24; Q 3.45; T 2.22; L 4.27; D 3.88; V 2.71
P5: H 2.6; E 3.81; Q 3.5; K 2.69; A 2.71; F 2.38; M 2.95; D 3.96; R 3.28; I 3.02; T 2.74; W 2.39; Y 2.03; G 1.93; N 3.03; L 2.53; C 2.45; S 3.76; V 2.82
P3: F 3.85; N 4; H 4.13; W 2.94; V 3.86; G 4.01; M 4.21; I 3.96; A 3.79; L 3.88; S 3.78; E 5.25; C 3.54; Y 3.54; D 5.34; T 3.9; R 2.27; Q 4.09; K 2.99
V2: G 5.17; S 5.06; R 4.84; F 4.78; H 4.86; E 5.7; L 5; K 5; A 4.97; W 4.53; I 4.37; D 5.52; Q 5.26; M 5.26; T 4.92; Y 5.18; N 5.14; C 4.32
I9: D 4.1; G 3.59; F 3.22; C 2.66; A 3.04; E 3.58
P6: W 2.25; I 2.24; V 2.11; Y 2.39; H 1.83; C 1.69; L 2.62; F 1.59; S 2.4; N 2; E 2.98; Q 2.67; R 1.71; M 2.63; A 2.34; G 1.81; T 2.13; D 2.56; K 1.78
S7: D 2.8; M 2.74; E 3.57; G 2.4; R 2.9; K 2.93; A 3.88; N 2.99; L 3.61; I 3.4; H 2.54; P 2.7; F 2.15; C 2.38; V 3.3; W 1.71; T 2.75; Q 2.84; Y 2.04
